Experimental data: publication PMC3839849 (2013)

Target: CaV1.2 IQ domain (Homo sapiens, UniProt Q13936, Ca2+)
Assay: ITC

Chain of CaV1.2 IQ domain (Q13936 1665-1685): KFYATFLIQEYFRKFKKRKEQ

B1: CaBP1 C-lobe (protein)
chain: ADMIGVKELRDAFREFDTNGDGEISTSELREAMRKLLGHQVGHRDIEEIIRDVDLNGDGRVDFEEFVRMMSR
  Kd: 10.5 nM
